In the supplement of paper PMC9170038:

Test system: K4 kissing-loop RNA reporter
Test: apparent KD of K4 kissing-loop reporter; higher = weaker reporter binding
Details: Eterna round: R107
Experimental: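 RNA-MaP round R107: designed RNA switches with theophylline, tryptophan, arginine or FMN aptamers are transcribed on-chip within common flanks. They are titrated with a labelled K4 kissing-loop RNA reporter in RNA-MaP buffer (100 mM Tris pH 7.5, 80 mM KCl, 4 mM MgCl2), without ligand or with the indicated ligand. Median apparent KD per design.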

[1] = input ligand: theophylline 20 uM
[2] = input ligand: tryptophan 2.4 mM
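Note: bound reporter read as fluorescence of individual clusters on recovered sequencing chips by microscopy, with normalized cluster intensities fitted with a binding model.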

Row | Sequence | apparent KD of K4 kissing-loop reporter (input ligand: FMN 200 uM) | apparent KD of K4 kissing-loop reporter (input ligand: arginine 13.2 mM) | apparent KD of K4 kissing-loop reporter (input ligand: none) | apparent KD of K4 kissing-loop reporter [1] | apparent KD of K4 kissing-loop reporter [2]
1 | AGCUGUAGCAGAAGGAGCGACAGUUAUUCUGAUAGUACUCUGAGUGAUGUUCAGAACGACUGUCAGGUAGGUCGCUGUUACAGCU [Arg B Ex t8b] | 166 nM | 167 nM | 169 nM | 143 nM | 162 nM
2 | UGUACCGAGUCAGGAUAUCAUAAUAAAUGCAGUGAUGUUGCAAUAACCAGUACAAAAGUGCUGGAUUGAGAAGGGACUUGGUACU [FmnBS 5 #SwitchBubble #StaticStem] | 99 nM | 126 nM | 126 nM | 119 nM | 112 nM
3 | UGUGCUGUGUAGUGUAAUGUUAUGCGGGAUACCAGAGUCUUUUUAUUCCCUUGGCAGCUUGAGUGAUGUUUGAUGCUGUUCUUGU [uujmullin] | 303 nM | 305 nM | 350 nM | 371 nM | 287 nM
4 | AUGCAGUGAUGUUGCUUUGUAUAAACAGAUACCAGUGAAUUUUAACACCCUUGGCAGCUGAUAGAUUCUUAAUUCUAUUAUAUAA [JR_SSTheophyA_Sub020] | 164 nM | 189 nM | 165 nM | 197 nM | 140 nM
5 | AGAACUGUCUUGGAUACCAGUGAUGUUGGUAUCUAUGUGUGAGUGCAAAGCGUCCCACAUUGCCCUUGGCAGCUAAGACUGUUCA [Omei KL Theo B Exc A v2] | 154 nM | 132 nM | 146 nM | 216 nM | 145 nM
6 | GGGAUAGGAUCAGUGAUGUUGGUCCCAGAUACCAGACAAAGUCACGUCCCUUGGCAGCUGAUGAUCGCUGACGACCGGCCUCCAA [theeternabot_sameState_KL_Theo_A_7] | 259 nM | 218 nM | 262 nM | 219 nM | 256 nM
7 | GGCCCGGGCUCGGCCGCCACUCCCUCGUACCGCAAGGUAUGAUACCGAGUGAUGUUCGGUUGGAGGAGGACCGGGAGCCCGGGCC [#2 Exclusion - Tryptophan B Attempt #6 (HarryS)] | 116 nM | 118 nM | 106 nM | 101 nM | 102 nM
8 | AAUAUCUAGUAUAUUUUUAAUAAAACAGAUACCAGUGAUAAUAGACACCCUUGGCAGCUGGUCGAGUGAUGUUCGUUUAUUUUAA [JR_SSTheophyA_Sub005] | 82.5 nM | 79.5 nM | 105 nM | 168 nM | 60 nM
9 | AUUCGUUUAUGUGAUACCAGACUUUGCAGUGAUGUUGCAUUUAUUUUUGAAUUUUAGUUUGUCCCUUGGCAGCACUAUUUAUUUA [JR_SSTheophyB_Sub005] | 44.1 nM | 87.8 nM | 50.5 nM | 83.1 nM | 42.3 nM
10 | AAUAAAAUCACGGCCGCCACUGAUUAUUUUAUUAGGAGUGAUGUUCCUAUGACAGUAUGCCUUAACAGGACCGGGUGAAUAUUUA [#19 K4 Tryptophan B Exclusion] | 122 nM | 125 nM | 144 nM | 143 nM | 156 nM
11 | CCGUAGAACGGAAGGAGCGCCAUAGAUAAGAAUUCCGUAAGUGAGUGAUGUUCACACAAAUGGCAGGUAGGUCGCCGUUAUUUAG [Arg B Ex t5] | 178 nM | 194 nM | 220 nM | 202 nM | 201 nM
12 | AUUUAAUUAACUGAUACCAGACUUUUUGUUUUGAUAAUUACUAGUGAUGUUAGUGUUUCUGUCCCUUGGCAGCAGAAUCUACUUA [JR_ExcTheophyB_Sub018] | 145 nM | 280 nM | 179 nM | 347 nM | 137 nM
13 | AGACUACUGACAGGAUAUAACAUCCUGGUCGUAUACCGAAAGGUAUACGAUUUCCUUCUAGUGAUGUUAGAAGGGUCGGUAGUCA [Omei KL FMN B Exc B v14] | 103 nM | 78 nM | 90.7 nM | 70.3 nM | 82.9 nM
14 | GGAGUCCCGUUAGAUUGUGUAGAUACAAGACGAGGACCGGUACGGCCGCCACUCGCCAUCGUCCAGUGAUGUUGGGCGUCACGGG [theeternabot_sameState_KL_Trp_A_30] | 262 nM | 179 nM | 235 nM | 227 nM | 219 nM
15 | AAGAGCUAGGCGGCCGCCACUAGUUGUGAACACGUACAAGCCAGUGAUGUUGGUAUGAUGGACGGUAGGACCGGGCCUAGCUGAA [Exclusion - Tryptophan B (Freestyle 14)] | 227 nM | 271 nM | 276 nM | 267 nM | 294 nM
16 | UGACUGGAUGGAAGGAGCGCUAAACUCCUAGUGAUGUUAGGGACACGAGACAAAGUCUCGAAGCAGGUAGGUCGCCAUCUAGUCU [FiskerMod 13 - Jieux - Same State - Arginine B] | 219 nM | 156 nM | 160 nM | 352 nM | 166 nM

Row | Sequence | apparent KD of K4 kissing-loop reporter (input ligand: FMN 200 uM) | apparent KD of K4 kissing-loop reporter (input ligand: arginine 13.2 mM) | apparent KD of K4 kissing-loop reporter (input ligand: none) | apparent KD of K4 kissing-loop reporter [1] | apparent KD of K4 kissing-loop reporter [2]
17 | AGAGUACGAAAGUACUCCUCUACACACUGACGAGGACCGGUACGGCCGCCACUCGAGUUGAGUGAUGUUCGAUAGUGUGUAGAGA [Omei KL Tryp A SS C v3] | 213 nM | 38.4 nM | 97 nM | 312 nM | 1120 nM
18 | CAUACGCAUGGAGGAUAUGAGAUUUCUCAUAUUAUUUAAUAUUCUCAGUGAUGUUGGGAUUUAAACUCAGAAGGCCAUGUGUAUG [Ex FMN B 7] | 259 nM | 159 nM | 159 nM | 234 nM | 169 nM
19 | AAGUGUGUGGCGGCCGCCACUAGGAUCCAGUGAUGUUGGAGAUAUCUCGUAAGAGAUAUCCGCCAUAGGACCGGGCCAUAUAGAA [Same State - Tryptophan B (Freestyle 16)] | 862 nM | 423 nM | 388 nM | 161 nM | 176 nM
20 | GCCGUACGCAUGGAUACCAGCACAGGCCGAAGUGAUGUUUCGUGCGUAUAUUUGUGCUACUGCCCUUGGCAGCCAUGCGUACGGC | 75.8 nM | 66.9 nM | 73.9 nM | 66.5 nM | 75.2 nM
21 | AUGAGGAGCAGUGAUCCUACUCCAUGGGAAGGAGCGUAGGAUACUACAGGUAGGUCGCCCAGUGAUGUUGGGCGCGUGCUCUUGG [Isatquesra] | 140 nM | 130 nM | 135 nM | 148 nM | 150 nM
22 | CAUUCGAAAUGCAGUGAUGUUGCAACUGAUACCAGUAUCGAAAGAUACCCUUGGCAGCGGAAAACCGCUACGUAUUUUUUGAAUG [Ex Theophylline A K4 25] | 257 nM | 317 nM | 270 nM | 356 nM | 253 nM
23 | GGUCGAGUGAUGUUCGAUGUUAUGCAUUCAGAGGAUAUAGGAUUAGCUAGAAGGCUGAAUCAAUCUUCGAGUGAUGUUCGAGGAU [Same State FMN A GF 9] | 133 nM | 108 nM | 115 nM | 123 nM | 112 nM
24 | AAUUUGGGUUCGGCCGCCACUCCAGUGAUGUUGGAUGGCGAAAUAAAGGCUAGACCAGGUUGCCGGAGGACCGGGAAUCCUGUAC [Qumabi] | 182 nM | 152 nM | 164 nM | 139 nM | 112 nM
25 | UGUCAUUGGUCGGCCGCCACUUUGUAUGGAGUGAUGUUUUGUAGAUUGUGUUGAAAGGUGUGGUGAAGGACCGGGACCGAUGACU [FiskerMod 24 - Jieux - Same State - Tryptophan B] | 1070 nM | 652 nM | 922 nM | 841 nM | 749 nM
26 | UCCGAGCUUAUUGAUACCAGUUCGGCGAGCUACUAGAGUGAUGUUCUUGUAAGCGUACACAACCCUUGGCAGCAAUAGAGGAGGU [theeternabot_sameState_KL_Theo_B_37] | 157 nM | 128 nM | 135 nM | 130 nM | 135 nM
27 | CAUAGACAAGUGAUGUUUGUCAUAACCGAAGGAGCGUCGUUGAAGACAGGUAGGUCGCGGAUUAAUUAAGAUUAUAUUCUUUUUA [JR_SSArginiA_Sub019] | 605 nM | 485 nM | 634 nM | 624 nM | 505 nM
28 | CGCGCCCGGCCGGAUACCAGUGACCCGCUGGGAACCGCGGGCCCAGAGUGAUGUUCGGGACACCCUUGGCAGCCGCCUGGGCGUG [#2 Same State - Theophylline B Attempt #5 (HarryS)] | 1110 nM | 364 nM | 841 nM | 738 nM | 550 nM
29 | AUCGUUGUCUGAGGAUAUCGGUUAUCUGUAGUGAUGUUACAGUAUAUUGAUAUUAAAGAUUCUAUUCGAGAAGGCAGACAACGUA [JR_Nu3_ExcFMNB_Sub023] | 75.5 nM | 62.7 nM | 67.2 nM | 57.9 nM | 61.9 nM
30 | GGGAUGAUGUCGGCCGCCACUGACUGUGUCCAGUGAUGUUGGGAGUGUACGGAAGUUCCAUAUAUCAGGACCGGGACCUCGCUCC [theeternabot_sameState_KL_Trp_B_44] | 866 nM | 487 nM | 938 nM | 817 nM | 616 nM
31 | GGAUAGGACAUAGGAUAUGGGCUAGGCAAGAAUAACUUGUCUAGCAAAUCCAUGAGGAGUGAUGUUCCAGAAGGAUGUCCUAUCG [FmnBX 1 U11+A75] | 566 nM | 108 nM | 112 nM | 123 nM | 84.5 nM
